One block for each binder: values may come before it.
Key:
[1] = biological target: T1, Activin A (UniProt P08476 311-426); assay: cell-based or functional assay
T1 sequence (looked up): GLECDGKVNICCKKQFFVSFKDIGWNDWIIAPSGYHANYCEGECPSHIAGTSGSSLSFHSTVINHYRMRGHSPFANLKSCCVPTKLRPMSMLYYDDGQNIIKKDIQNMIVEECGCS

[2] = biological target: T2, Myostatin (UniProt O14793 267-375); assay: cell-based or functional assay
T2 sequence (looked up): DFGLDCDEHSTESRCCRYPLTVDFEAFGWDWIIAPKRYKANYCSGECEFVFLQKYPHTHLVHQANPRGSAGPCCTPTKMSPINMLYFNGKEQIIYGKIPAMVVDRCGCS

[3] = biological target: T2, Myostatin; assay: SPR (BIAcore), myostatin as analyte
[4] = biological target: T1, Activin A; assay: surface plasmon resonance
[5] = biological target: T2, Myostatin; assay: surface plasmon resonance

- Activin A IC50, cell-based assay for SMAD pathway (A204 luciferase reporter) [1]: 0.8 nM
- Myostatin IC50, cell-based assay for SMAD pathway (A204 luciferase reporter) [2]: 0.7 nM
- Kd [3]: 0.0148 nM
- Kd [4]: 0.0061 nM
- Kd [5]: 0.0075 nM
B1: FS315K(76,81,82)E-mFc (Fc fusion)
chain: GNCWLRQAKNGRCQVLYKTELSKEECCSTGRLSTSWTEEDVNDNTLFKWMIFNGGAPNCIPCKETCENVDCGPGKECRMNEENKPRCVCAPDCSNITWKGPVCGLDGKTYRNECALLKARCKEQPELEVQYQGRCKKTCRDVFCPGSSTCVVDQTNNAYCVTCNRICPEPASSEQYLCGNDGVTYSSACHLRKATCLLGRSIGLAYEGKCIKAKSCEDIQCTGGKKCLWDFKVGRGRCSLCDELCPDSKSDEPVCASDNATYASECAMKEAACSSGVLLEVKHSGSCNSISEDTEEEEEDEDQDYSFPISSILEW
notes: K76, K81, K82 to glutamic acid, fused with murine Fc; also called FS-EEE-mFc; not shown: murine Fc (mFc)

- Activin A IC50, cell-based assay for SMAD pathway (A204 luciferase reporter) [1]: 0.5 nM
- Myostatin IC50, cell-based assay for SMAD pathway (A204 luciferase reporter) [2]: 0.5 nM
B2: ActRIIB-Fc (Fc fusion, UniProt Q13705 19-134, looked up, not shown: a dimerising Fc or GST)
chain: SGRGEAETRECIYYNANWELERTNQSGLERCEGEQDKRLHCYASWRNSSGTIELVKKGCWLDDFNCYDRQECVATEENPQVYFCCCEGNFCNERFTHLPEAGGPEVTYEPPPTAPT

Source: patent US20180362604A1 (SHIRE HUMAN GENETIC THERAPIES, published 2018)
